Where two headings read alike, the source gives them in different places. Square brackets hold non-standard residues; d marks the D form. Ends that are not written are not given here.
Legend:
[1] = CD-monitored thermal denaturation (two-state unfolding fit); format: physicochemical; details: for ΔCp / Tm / ΔHm: 20 μM peptide in 20 mM potassium phosphate; for ΔCp / Tm / ΔSm / ΔHm: pH 7.0; for Tm: CD at 229 nm; for ΔSm: calculated from the fit parameters (ΔHm/Tm), 20 μM peptide, 20 mM potassium phosphate; for ΔHm: ΔH at Tm
Protocol: Spectra were acquired with an Aviv Instruments, Inc. Model 202 spectrophotometer. Peptide concentrations were determined spectrophotometrically as described in Gill & von Hippel (1989) Anal. Biochem. 182:319–326. Melting curves were acquired at 229 nm with […] equilibration at each temperature and an averaging time of 15 s. Thermal denaturation was reversible, as judged by recovery of CD signal (≧95%) upon cooling. In addition, reverse melting curves were acquired for trpzips 1 and 4. Reverse and forward curves were identical in shape, with≦0.5 K shift in Tm. As a model for the unfolded state of the peptides, the melting curve (linear) of an equimolar mixture of the trpzip1 half peptides SWTWEG[SEQ ID NO: 14] and NKWTWK [SEQ ID NO: 15] was measured. Data for the trpzip peptides were then fit to a two-state unfolding equilibrium as described in Minor & Kim (1994) Nature 367:660–663, fixing the unfolded baseline. Folded baselines, Tm, ΔHm (ΔH at Tm), and ΔCp were allowed to vary. For trpzips 5 and 6, the unfolded baseline could be fit directly to the experimental data. ΔSm was calculated from the fit parameters (ΔHm/Tm). Errors in Table 2 were generated by the fitting algorithm (Kaleidagraph, Synergy Software) and were given to indicate the quality of the fits to the particular experimental data set. However, when fitting different data sets, ΔHm and ΔCp values varied by ˜10%, as is typical in thermal denaturation experiments. Becktel & Scheilman (1987) Biopolymers 26:1859–1877.
Fitting the trpzip denaturation curves in this manner required large shifts in Tm (˜5–10 K higher than the minimum in a derivative plot) and generated fits of lower quality. […] From our data on trpzips 4, 5 and 6, we can estimate ΔCp ˜200 cal mol^−1 K^−1 for the gb1 peptide, which is sufficient to explain the discrepancy between our population estimate for the gb1 hairpin and those previously reported (Munoz et al. (1997), supra; Honda et al. (2000), supra). Recently, a non-zero ΔCp (˜100 cal mol^−1 K^−1) was reported for the unfolding of a 12-residue hairpin related to gb1. Espinosa & Gellman (2000) Angew. Chem. Int. Ed. 39:2330–2333.

[2] = literature estimates, in water, gb1 at 278 K by NMR, cited from earlier work
[3] = Analytical (equilibrium) ultracentrifugation; format: physicochemical; details: for σobs/σcalc (reduced apparent molecular weight, observed/calculated): non-ideal single-species model, 20 mM potassium phosphate, 150 mM KCl, pH 7.1, 277 K
Protocol: Samples (in 20 mM potassium phosphate, 150 mM KCl, pH 7.1; 277 K) were analyzed in a Beckman XL-A ultracentrifuge at rotor speeds of 40 and 55 krpm. Peptide concentration was monitored by absorbance at or near 290 nm. Data for both speeds and two initial peptide concentrations (60 and 200 μM, […] data sets total per peptide) were fit simultaneously to a nonideal single species model using the program NONLIN. Johnson et al. (1981) Biophys. J. 36: 575–588.
Allowing nonideality improved the fit for the 200 μM samples while only slightly changing the reduced apparent molecular weight σ (˜+6%). For all 3 peptides, data from 60 μM samples fit an ideal model (FIG. 2) with random residuals. Expected σ values were determined from partial specific volumes based on residue composition, calculated buffer density, and monomer formula weights.

Substance	ΔCp [1]	Tm [1]	ΔSm [1]	ΔHm [1]	unfolding free energy ([1]; 298 K)	Melting temperature higher than that of wt gb1 peptide ([1]; depending on the method used to estimate the folded population of gb1)	ΔCp, estimated from data on trpzips 4, 5 and 6 [1]	ΔGunf, estimated assuming additive stabilization from the two pairs ([1]; 298 K, estimated from trpzips 4, 5 and 6)	Hairpin population [2]	Hairpin population ([2]; listed as GB1 hairpin)	Tm ([1]; listed as Trpzip1)	Dependence of thermal denaturation on peptide concentration ([1]; trpzip1 20–150 μM, trpzip4 100 μM vs. 20 μM)	σobs/σcalc (reduced apparent molecular weight, observed/calculated) [3]	Peptide concentration up to which monomeric [3]
GEWHWDDATKTWVWTE (GEWHWDDATKTWVWTE-NH2) [trpzip7]	418 ± 4 cal mol^−1 K^−1	80.2 ± 0.1 °C	70.8 cal mol^−1 K^−1	25.03 ± 0.1 kcal/mol	–	–	–	–	–	–	–	–	–	–
GEWTWDDATKTWTVTE (GEWTWDDATKTWTVTE-NH2) [trpzip6]	236 ± 17 cal mol^−1 K^−1	44.6 ± 0.48 °C	32.4 cal mol^−1 K^−1	10.29 ± 0.3 kcal/mol	0.49 kcal/mol	–	–	–	–	–	–	–	–	–
GEWTWDDATKTWTWTE (GEWTWDDATKTWTWTE-NH2) [trpzip4]	380 ± 4 cal mol^−1 K^−1	70.0 ± 0.1 °C	63.7 cal mol^−1 K^−1	21.86 ± 0.06 kcal/mol	1.69 kcal/mol	at least 40 K	–	–	–	–	–	–	–	–
GEWTYDDATKTFTVTE (Streptococcus; Streptococcus Full The 41-56 residue fragment of the protein G B1 domain) [gb1, reference compound]	–	–	–	–	–	–	~200 cal mol^−1 K^−1	~-0.6 kcal/mol	~40%	about 50%	–	–	–	–
GEWTYDDATKTFTWTE (GEWTYDDATKTFTWTE-NH2) [trpzip5]	325 ± 10 cal mol^−1 K^−1	42.7 ± 0.2 °C	42.2 cal mol^−1 K^−1	13.32 ± 0.14 kcal/mol	0.57 kcal/mol	–	–	–	–	–	–	–	–	–
GEWVWDDATKTWHWTE (GEWVWDDATKTWHWTE-NH2) [trpzip8]	440 ± 4 cal mol^−1 K^−1	79.1 ± 0.1 °C	73.8 cal mol^−1 K^−1	25.98 ± 0.11 kcal/mol	–	–	–	–	–	–	–	–	–	–
GEWVWDDATKTWVWTE (GEWVWDDATKTWVWTE-NH2) [trpzip9]	402 ± 2 cal mol^−1 K^−1	92.0 ± 0.0 °C	73.1 cal mol^−1 K^−1	26.69 ± 0.08 kcal/mol	–	–	–	–	–	–	–	–	–	–
SWTWEGNKWTWK (SWTWEGNKWTWK-NH2) [trpzip1]	231 ± 4 cal mol^−1 K^−1	49.9 ± 0.3 °C	33.4 cal mol^−1 K^−1	10.79 ± 0.12 kcal/mol	–	–	–	–	–	–	50 °C	does not shift with peptide concentration	1.02 ± 0.04	–
SWTWENGKWTWK (SWTWENGKWTWK-NH2) [trpzip2]	281 ± 2 cal mol^−1 K^−1	71.9 ± 0.1 °C	48.6 cal mol^−1 K^−1	16.77 ± 0.06 kcal/mol	–	–	–	–	–	–	–	–	1.01 ± 0.04	at least 200 μM
SWTWEpNKWTWK (SWTWE[dP]NKWTWK-NH2; N-terminus assumed; SMILES C[C@@H](O)[C@H](NC(=O)[C@H](Cc1c[nH]c2ccccc12)NC(=O)[C@H](CCCCN)NC(=O)[C@H](CC(N)=O)NC(=O)[C@H]1CCCN1C(=O)[C@H](CCC(=O)O)NC(=O)[C@H](Cc1c[nH]c2ccccc12)NC(=O)[C@@H](NC(=O)[C@H](Cc1c[nH]c2ccccc12)NC(=O)[C@@H](N)CO)[C@@H](C)O)C(=O)N[C@@H](Cc1c[nH]c2ccccc12)C(=O)N[C@@H](CCCCN)C(N)=O) [trpzip3]	195 ± 2 cal mol^−1 K^−1	78.7 ± 0.2 °C	37.0 cal mol^−1 K^−1	13.02 ± 0.07 kcal/mol	–	–	–	–	–	–	–	–	1.00 ± 0.04	–

From patent US7229777B2, “Hairpin peptides with a novel structural motif and methods relating thereto” (Genentech, Inc., priority 2001, dated 2007)
